Source: publication PMC2132829

How the values were obtained:
[1] = molecular target: Xmad2 (Xenopus laevis (endogenous in egg extracts)); test: co-IP
[2] = molecular target: Xmad1 (Xenopus laevis (endogenous in egg extracts)); test: co-IP

For Xmad1 (natural protein), the percent of Xmad1 removed by immunodepletion of Xmad2 [1] was > 95%.
Xmad2 (natural protein) gave a percent of Xmad2 bound with Xmad1 [2] of 40%.
